Measurements reported in PMC2408616, “Modular Organization and Combinatorial Energetics of Proline–Tyrosine Nuclear Localization Signals” (PLoS Biology, 2008).
Where no end group is shown, it is not given here. MBP = not defined here

What was measured:
[1] = target: T1, Kap104p (yeast (S. cerevisiae), UniProt P38217 1-918); experiment: ITC; 90–350 μM MBP-NLS titrated into 9–35 μM Kap104p in the cell; 20 °C; 20 mM Tris pH 7.5, 100 mM NaCl, 2 mM β-mercaptoethanol, 10% glycerol; 35 injections of 8 μl; single-site model; conditions: both partners purified
T1 construct: Kap104p, yeast homolog of Kapβ2; gene a gift from J. Aitchison, subcloned into pGEX-Tev; also called yeast Karyopherin β2 homolog; source: E. coli Rosetta(DE3)pLysS, purified (glutathione sepharose, TEV cleavage, anion exchange, gel filtration)
T1 sequence (looked up): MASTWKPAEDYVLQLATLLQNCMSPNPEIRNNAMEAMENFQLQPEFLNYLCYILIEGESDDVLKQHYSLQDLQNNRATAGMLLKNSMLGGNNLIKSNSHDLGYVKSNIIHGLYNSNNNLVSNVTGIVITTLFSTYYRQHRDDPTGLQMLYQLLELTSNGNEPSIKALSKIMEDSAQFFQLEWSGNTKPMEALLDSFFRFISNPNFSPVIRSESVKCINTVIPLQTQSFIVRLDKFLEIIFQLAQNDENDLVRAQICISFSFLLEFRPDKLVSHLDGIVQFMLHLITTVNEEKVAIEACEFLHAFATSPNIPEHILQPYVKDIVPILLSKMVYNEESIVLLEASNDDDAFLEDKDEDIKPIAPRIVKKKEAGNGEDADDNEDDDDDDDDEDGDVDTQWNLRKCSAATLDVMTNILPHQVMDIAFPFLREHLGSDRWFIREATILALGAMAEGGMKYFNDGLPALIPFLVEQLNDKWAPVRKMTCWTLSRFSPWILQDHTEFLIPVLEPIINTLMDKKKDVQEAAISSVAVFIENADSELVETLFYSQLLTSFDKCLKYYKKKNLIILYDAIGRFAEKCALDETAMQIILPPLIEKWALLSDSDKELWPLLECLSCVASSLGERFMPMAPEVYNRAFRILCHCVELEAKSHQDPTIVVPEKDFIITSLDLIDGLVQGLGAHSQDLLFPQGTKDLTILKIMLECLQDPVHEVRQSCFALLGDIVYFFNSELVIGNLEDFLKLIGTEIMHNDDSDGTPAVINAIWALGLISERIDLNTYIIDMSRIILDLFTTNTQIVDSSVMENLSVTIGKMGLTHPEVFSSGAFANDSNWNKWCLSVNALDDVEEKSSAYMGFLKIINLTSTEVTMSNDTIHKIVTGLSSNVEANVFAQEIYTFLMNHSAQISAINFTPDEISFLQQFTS

[2] = target: T2, Kap104p, P38217; experiment: ITC; conditions: for ddG / ratio to parent: chain shown with the change; for other: TΔS / Kd / other: ΔH / dG: chain shown with the change;; for other: TΔS: parent: 0.09 ± 0.7; for Kd: parent: 32 ± 16; for other: ΔH: parent: -10.0 ± 0.5; for dG: parent: -10.1 ± 0.3
T2 chain: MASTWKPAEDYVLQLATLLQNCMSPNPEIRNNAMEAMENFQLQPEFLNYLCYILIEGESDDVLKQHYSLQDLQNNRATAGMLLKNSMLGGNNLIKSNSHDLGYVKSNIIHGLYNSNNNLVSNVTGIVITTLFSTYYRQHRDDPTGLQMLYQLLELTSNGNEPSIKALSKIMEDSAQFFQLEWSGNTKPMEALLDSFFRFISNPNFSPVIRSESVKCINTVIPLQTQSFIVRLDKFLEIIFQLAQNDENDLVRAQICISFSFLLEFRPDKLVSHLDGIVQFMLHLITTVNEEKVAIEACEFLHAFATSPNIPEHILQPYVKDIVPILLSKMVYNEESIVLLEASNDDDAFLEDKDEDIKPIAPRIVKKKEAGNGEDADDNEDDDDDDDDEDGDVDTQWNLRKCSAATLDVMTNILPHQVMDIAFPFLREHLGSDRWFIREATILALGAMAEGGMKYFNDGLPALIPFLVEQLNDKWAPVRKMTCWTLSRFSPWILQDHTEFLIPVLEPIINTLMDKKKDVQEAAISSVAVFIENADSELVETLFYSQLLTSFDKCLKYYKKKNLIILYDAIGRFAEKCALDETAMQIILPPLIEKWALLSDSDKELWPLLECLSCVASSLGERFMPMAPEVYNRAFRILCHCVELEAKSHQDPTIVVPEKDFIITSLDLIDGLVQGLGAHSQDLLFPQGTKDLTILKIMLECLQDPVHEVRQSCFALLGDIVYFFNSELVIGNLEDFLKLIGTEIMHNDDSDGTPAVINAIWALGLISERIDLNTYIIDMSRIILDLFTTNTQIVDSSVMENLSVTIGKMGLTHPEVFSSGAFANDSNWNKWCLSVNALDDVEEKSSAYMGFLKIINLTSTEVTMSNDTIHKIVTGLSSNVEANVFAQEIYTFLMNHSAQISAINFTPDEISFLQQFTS

B1: MBP–Nab2p NLS L239W (domain or fragment, S. cerevisiae, UniProt P32505 201-251, looked up)
chain: DNSQRFTQRGGGAVGKNRRGGRGGNRGGRNNNSTRFNPWAKALGMAGESNM
notes: Nab2p NLS, residues 201-251; also called L239 to W; source: E. coli BL21(DE3), purified (amylose resin, cation exchange)
B1: binds [1].

B2: MBP–Nab2p NLS R218, R219, R222, R226, R229/AAAAA (domain or fragment, S. cerevisiae, UniProt P32505 201-251, looked up)
chain: DNSQRFTQRGGGAVGKNAAGGAGGNAGGANNNSTRFNPLAKALGMAGESNM
notes: Nab2p NLS, residues 201-251; also called pentamutant; source: E. coli BL21(DE3), purified (amylose resin, cation exchange)
For B2, the Kd [1] was 2250 nM.

B3: MBP–Nab2p NLS R218A (domain or fragment, S. cerevisiae, UniProt P32505 201-251, looked up)
chain: DNSQRFTQRGGGAVGKNARGGRGGNRGGRNNNSTRFNPLAKALGMAGESNM
notes: Nab2p NLS, residues 201-251; source: E. coli BL21(DE3), purified (amylose resin, cation exchange)
B3 was tested, and the “KD,mutant/KD,wild type” value [1] was ~1.

B4: MBP–Nab2p NLS R219A (domain or fragment, S. cerevisiae, UniProt P32505 201-251, looked up)
chain: DNSQRFTQRGGGAVGKNRAGGRGGNRGGRNNNSTRFNPLAKALGMAGESNM
notes: as for B3
For B4, the “KD,mutant/KD,wild type” value [1] was ~1.

B5: MBP–Nab2p NLS R222A (domain or fragment, S. cerevisiae, UniProt P32505 201-251, looked up)
chain: DNSQRFTQRGGGAVGKNRRGGAGGNRGGRNNNSTRFNPLAKALGMAGESNM
notes: as for B3
For B5, the “KD,mutant/KD,wild type” value [1] was ~1.

B6: MBP–Nab2p NLS R222A, 238PL239/AA (domain or fragment, S. cerevisiae, UniProt P32505 201-251, looked up)
chain: DNSQRFTQRGGGAVGKNRRGGAGGNRGGRNNNSTRFNAAAKALGMAGESNM
notes: as for B3
In the case of B6, the Kd [1] is reported as 411 nM.

B7: MBP–Nab2p NLS R226A (domain or fragment, S. cerevisiae, UniProt P32505 201-251, looked up)
chain: DNSQRFTQRGGGAVGKNRRGGRGGNAGGRNNNSTRFNPLAKALGMAGESNM
notes: as for B3
With B7 the “KD,mutant/KD,wild type” value [1] was ~1.

B8: MBP–Nab2p NLS R229A (domain or fragment, S. cerevisiae, UniProt P32505 201-251, looked up)
chain: DNSQRFTQRGGGAVGKNRRGGRGGNRGGANNNSTRFNPLAKALGMAGESNM
notes: as for B3
With B8 the “KD,mutant/KD,wild type” value [1] was ~1.

B9: MBP–Nab2p NLS R235A (domain or fragment, S. cerevisiae, UniProt P32505 201-251, looked up)
chain: DNSQRFTQRGGGAVGKNRRGGRGGNRGGRNNNSTAFNPLAKALGMAGESNM
notes: as for B3
With B9 the “KD,mutant/KD,wild type” value [1] was 5.5.

B10: MBP–Nab2p NLS R235A, 238PL239/AA (domain or fragment, S. cerevisiae, UniProt P32505 201-251, looked up)
chain: DNSQRFTQRGGGAVGKNRRGGRGGNRGGRNNNSTAFNAAAKALGMAGESNM
notes: as for B3
Binder B10 has a Kd [1] of 544 nM.

B11: MBP–Nab2p NLS R235H (domain or fragment, S. cerevisiae, UniProt P32505 201-251, looked up)
chain: DNSQRFTQRGGGAVGKNRRGGRGGNRGGRNNNSTHFNPLAKALGMAGESNM
notes: Nab2p NLS, residues 201-251; also called R235 to histidine; source: E. coli BL21(DE3), purified (amylose resin, cation exchange)
In the case of B11, the “KD,mutant/KD,wild type” value [1] is reported as 1.7.

B12: MBP–Nab2p NLS R235K (domain or fragment, S. cerevisiae, UniProt P32505 201-251, looked up)
chain: DNSQRFTQRGGGAVGKNRRGGRGGNRGGRNNNSTKFNPLAKALGMAGESNM
notes: Nab2p NLS, residues 201-251; also called R235 to lysine; source: E. coli BL21(DE3), purified (amylose resin, cation exchange)
With B12 the “KD,mutant/KD,wild type” value [1] was 1.

B13: MBP–Hrp1p NLS (domain or fragment, S. cerevisiae, UniProt Q99383 494-534, looked up)
chain: RDRNDRDRDYNHRSGGNHRRNGRGGRGGYNRRNNGYHPYNR
notes: Hrp1p NLS, residues 494-534; also called Hrp1p NLS wild type; source: E. coli BL21(DE3), purified (amylose resin, cation exchange)
Binder B13 has a Kd [1] of 32 nM.

B14: MBP–Hrp1p NLS 506RSGG509/AAAA (domain or fragment, S. cerevisiae, UniProt Q99383 494-534, looked up)
chain: RDRNDRDRDYNHAAAANHRRNGRGGRGGYNRRNNGYHPYNR
notes: Hrp1p NLS, residues 494-534; source: E. coli BL21(DE3), purified (amylose resin, cation exchange)
Work on B14 yielded a ddG [2] of 0.02 kcal/mol, a ratio to parent [2] of 1.3 and an other: TΔS [2] of -2.6 kcal/mol/K. For the same binder, the Kd [2] was 42 nM, the other: ΔH [2] was -12.6 kcal/mol and the dG [2] was -10 kcal/mol. B14: binds [1].

B15: MBP–Hrp1p NLS 512RRNG515/AAAA (domain or fragment, S. cerevisiae, UniProt Q99383 494-534, looked up)
chain: RDRNDRDRDYNHRSGGNHAAAARGGRGGYNRRNNGYHPYNR
notes: as for B14
B15 was tested, and the ddG [2] was 0.2 kcal/mol, the ratio to parent [2] was 1.5 and the other: TΔS [2] was 1.5 kcal/mol/K. It also gave a Kd [2] of 48 nM, an other: ΔH [2] of -8.3 kcal/mol and a dG [2] of -9.8 kcal/mol. B15: binds [1].

B16: MBP–Hrp1p NLS 516RGG518/AAA (domain or fragment, S. cerevisiae, UniProt Q99383 494-534, looked up)
chain: RDRNDRDRDYNHRSGGNHRRNGAAARGGYNRRNNGYHPYNR
notes: as for B14
B16 showed a ddG [2] of -0.3 kcal/mol, a ratio to parent [2] of 0.7 and an other: TΔS [2] of 2 kcal/mol/K. It also gave a Kd [2] of 24 nM, an other: ΔH [2] of -8.3 kcal/mol and a dG [2] of -10.3 kcal/mol. B16: binds [1].

B17: MBP–Hrp1p NLS 531PY532/AA (domain or fragment, S. cerevisiae, UniProt Q99383 494-534, looked up)
chain: {MBP}-RDRNDRDRDYNHRSGGNHRRNGRGGRGGYNRRNNGYHAANR
modifications: reading uncertain
notes: as for B14
With B17 the Kd [1] was > 10000 nM.

B18: MBP–Hrp1p NLS Y532F (domain or fragment, S. cerevisiae, UniProt Q99383 494-534, looked up)
chain: RDRNDRDRDYNHRSGGNHRRNGRGGRGGYNRRNNGYHPFNR
notes: as for B14
For B18, the “fold decrease in affinity against wild type” value [1] was 4 fold.

B19: MBP–Hrp1p NLS Y532H (domain or fragment, S. cerevisiae, UniProt Q99383 494-534, looked up)
chain: RDRNDRDRDYNHRSGGNHRRNGRGGRGGYNRRNNGYHPHNR
notes: as for B14
Binder B19 has a Kd [1] of 1000 nM.

B20: MBP–Hrp1p NLS Y532M (domain or fragment, S. cerevisiae, UniProt Q99383 494-534, looked up)
chain: RDRNDRDRDYNHRSGGNHRRNGRGGRGGYNRRNNGYHPMNR
notes: as for B14
For B20, the Kd [1] was 2000 nM.
